Article PMC13480645 (PLOS Pathogens, 2026)

Key:
[1] = molecular target: T1, SARS-CoV-2 S-2P protein (SARS-CoV-2, ancestral (Wuhan-Hu-1) …, UniProt P0DTC2, stabilised); assay: BLI; conditions: both partners purified
[2] = molecular target: T1, SARS-CoV-2 S-2P protein; assay: cell-based or functional assay

Row | Binder | Kd [1] [nM] | kon [1] [M⁻¹ s⁻¹] | IC50 of neutralisation of SARS-CoV-2 pseudovirus (HeLa-hACE2 cells) [2] [µg/mL]
1 | eCC65.1-8 (antibody, V domains shown) VH: VQLVQSGAEVKKPGASVKVSCKASGYEFTSQYMHWVRQAPGQGLEWMGIIDPSGGGASYAQKFRDRVSMTRDTPTSTVYMELRSLRSEDTAVYYCASLWFGNPSWRDYWGQGTLVTVSS VL: VMTQSPGTLSLSPGERATLSCRASQTVNSNYLAWYQQKPGQAPRLLIYHASSRATGIPDRFSGSGSGTDFTLTISRLEPEDFAVYYCQQYQSSPPLFTFGPGTKLEIK | 0.945 | 258000 | 3.95
2 | eCC65.1-9 (antibody, V domains shown) VH: VQLVQSGAEVKKPGASVKVSCKASGYDFTSQYMHWVRQAPGQGLEWMGIIDPEGGGTSYAQKFRDRVSMTRDTPTSTVYMELRSLRSEDTAVYYCASLWFEKPSWRDYWGQGTLVTVSS VL: VMTQSPGTLSLSPGERATLSCRASQTVTSNYLAWYQQKPGQAPRLLIYHASSRATGIPDRFSGSGSGTDFTLTISRLEPEDFAVYYCQQYGSKPPLFTFGPGTKLEIK | 0.0102 | 306000 | 2.6
3 | eCC65.1-10 (antibody, V domains shown) VH: VQLVQSGAEVKKPGASVKVSCKASGYDFTSQYMHWVRQAPGQGLEWMGIIDPSGGGTSYAQKFRDRVSMTRDTPTSTVYMELRSLRSEDTAVYYCASLWFENPSWSDYWGQGTLVTVSS VL: VMTQSPGTLSLSPGERATLSCRASQTVNKNYLAWYQQKPGQAPRLLIYHASSRATGIPDRFSGSGSGTDFTLTISRLEPEDFAVYYCQQYGASPPLFTFGPGTKLEIK | < 0.001 | 278000 | 1.86
4 | eCC65.1-11 (antibody, V domains shown) VH: VQLVQSGAEVKKPGASVKVSCKASGYEFTSQYMHWVRQAPGQGLEWMGIIDPSGGGASYAQKFRDRVSMTRDTPTSTVYMELRSLRSEDTAVYYCASLWFGNPSWRDYWGQGTLVTVSS VL: VMTQSPGTLSLSPGERATLSCRASSTVNSNYLAWYQQKPGQAPRLLIYHASSRATGIPDRFSGSGSGTDFTLTISRLEPEDFAVYYCQQYGASPPLFTFGPGTKLEIK | 0.801 | 249000 | 5.26
5 | eCC65.1-12 (antibody, V domains shown) VH: EVQLVQSGAEVKKPGASVKVSCKASGYTFTSQYMHWVRQAPGQGLEWMGIIDPSGGGTSYAQKFRDRVSMTRDTPTSTVYMELRSLRSEDTAVYYCASLWFENPSWRDYWGQGTLVTVSS VL: DVVMTQSPGTLSLSPGERATLSCRASQTVNKNYLAWYQQKPGQAPRLLIYHASSRATGIPDRFSGSGSGTDFTLTISRLEPEDFAVYYCQQYGASPPLFTFGPGTKLEIK | < 0.001 | 273000 | 5.77
6 | eCC65.1-13 (antibody, V domains shown) VH: EVQLVQSGAEVKKPGASVKVSCKASGYTFTSQYMHWVRQAPGQGLEWMGIIDPSGGGTSYAQKFRDRVSMTRDTPTSTVYMELRSLRSEDTAVYYCASLWFENPSWRDYWGQGTLVTVSS VL: VMTQSPGTLSLSPGERATLSCRASQTVNKNYLAWYQQKPGQAPRLLIYGASSRATGIPDRFSGSGSGTDFTLTISRLEPEDFAVYYCQQYGASPPLFTFGPGTKLEIK | 0.0819 | 256000 | 2.41
7 | eCC65.1-1 (antibody, V domains shown) VH: VQLVQSGAEVKKPGASVKVSCKASGYEFTSQYMHWVRQAPGQGLEWMGIIDPSGGGASYAQKFRDRVSMTRDTPTSTVYMELRSLRSEDTAVYYCASLWFGNPSWRDYWGQGTLVTVSS VL: VMTQSPGTLSLSPGERATLSCRASQTVNSNYLAWYQQKPGQAPRLLIYHASSRATGIPDRFSGSGSGTDFTLTISRLEPEDFAVYYCQQYGASPPLFTFGPGTKLEIK | 0.843 | 236000 | 5.79
8 | eCC65.1-2 (antibody, V domains shown) VH: VQLVQSGAEVKKPGASVKVSCKATGYTFTSQYMHWVRQAPGQGLEWMGIIDPKGGGTSYAQKFRDRVSMTRDTPTSTVYMELRSLRSEDTAVYYCASLWFENPSWTDYWGQGTLVTVSS VL: VMTQSPGTLSLSPGERATLSCRASQTVNKNYLAWYQQKPGQAPRLLIYHASSRATGIPDRFSGSGSGTDFTLTISRLEPEDFAVYYCQQYGSSPPLFTFGPGTKLEIK | < 0.001 | 283000 | 2.05
9 | eCC65.1-3 (antibody, V domains shown) VH: VQLVQSGAEVKKPGASVKVSCKASGYTFTSQYMHWVRQAPGQGLEWMGIIDPEGGGTSYAQKFRDRVSMTRDTPTSTVYMELRSLRSEDTAVYYCASLWFEQPSWRDYWGQGTLVTVSS VL: VMTQSPGTLSLSPGERATLSCRASQTVNKNYLAWYQQKPGQAPRLLIYHASSRATGIPDRFSGSGSGTDFTLTISRLEPEDFAVYYCQQYGASPPLFTFGPGTKLEIK | < 0.001 | 289000 | 4.67
10 | eCC65.1-4 (antibody, V domains shown) VH: VQLVQSGAEVKKPGASVKVSCKASGYTFESQYMHWVRQAPGQGLEWMGIIDPKGGGTSYAQKFRDRVSMTRDTPTSTVYMELRSLRSEDTAVYYCASLWFETPSWRDYWGQGTLVTVSS VL: VMTQSPGTLSLSPGERATLSCRASQTVNKNYLAWYQQKPGQAPRLLIYGASSRATGIPDRFSGSGSGTDFTLTISRLEPEDFAVYYCQTYGSSPPLFTFGPGTKLEIK | 0.0136 | 287000 | 1.84
11 | eCC65.1-5 (antibody, V domains shown) VH: VQLVQSGAEVKKPGASVKVSCKATGYTFTSQYMHWVRQAPGQGLEWMGIIDPSGGGTSYAQKFRDRVSMTRDTPTSTVYMELRSLRSEDTAVYYCASIWFENPSWRDYWGQGTLVTVSS VL: VMTQSPGTLSLSPGERATLSCRASQTVNKNYLAWYQQKPGQAPRLLIYGASSRATGIPDRFSGSGSGTDFTLTISRLEPEDFAVYYCQQYGSSPPLFTFGPGTKLEIK | < 0.001 | 286000 | 1.63
12 | eCC65.1-6 (antibody, V domains shown) VH: EVQLVQSGAEVKKPGASVKVSCKASGYTFTSQYMHWVRQAPGQGLEWMGIIDPSGGGTSYAQKFRDRVSMTRDTPTSTVYMELRSLRSEDTAVYYCASLWFENPSWRDYWGQGTLVTVSS VL: VMTQSPGTLSLSPGERATLSCRASQTVNKNYLAWYQQKPGQAPRLLIYHASSRATGIPDRFSGSGSGTDFTLTISRLEPEDFAVYYCQQYGSSPPLFTFGPGTKLEIK | 0.0472 | 261000 | 2.98
13 | eCC65.1-7 (antibody, V domains shown) VH: VQLVQSGAEVKKPGASVKVSCKASGYSFTSQYMHWVRQAPGQGLEWMGIIDPSGGGTSYAQKFRDRVSMTRDTPTSTVYMELRSLRSEDTAVYYCASLWFENPSWRDYWGQGTLVTVSS VL: VMTQSPGTLSLSPGERATLSCRASQTVNKNYLAWYQQKPGQAPRLLIYHASSRATGIPDRFSGSGSGTDFTLTISRLEPEDFAVYYCQQYGASPPLFTFGPGTKLEIK | 0.157 | 270000 | 3.01
